Measurements reported in patent publication US20120301930A1 (YEDA RESEARCH AND DEVELOPMENT, published 2012).

Legend:
[1] = molecular target: T1, f-5A chimera (catalytic module of T. fusca family-5 endoglucanase Cel5A fused to a dockerin from Ruminococcus …); test: non-denaturing PAGE mobility shift, equimolar mixture
T1 construct: Recombinant chimera expressed in E. coli; all enzyme constructs were designed to contain a His-tag; also called variant Cel5A
T1 chain: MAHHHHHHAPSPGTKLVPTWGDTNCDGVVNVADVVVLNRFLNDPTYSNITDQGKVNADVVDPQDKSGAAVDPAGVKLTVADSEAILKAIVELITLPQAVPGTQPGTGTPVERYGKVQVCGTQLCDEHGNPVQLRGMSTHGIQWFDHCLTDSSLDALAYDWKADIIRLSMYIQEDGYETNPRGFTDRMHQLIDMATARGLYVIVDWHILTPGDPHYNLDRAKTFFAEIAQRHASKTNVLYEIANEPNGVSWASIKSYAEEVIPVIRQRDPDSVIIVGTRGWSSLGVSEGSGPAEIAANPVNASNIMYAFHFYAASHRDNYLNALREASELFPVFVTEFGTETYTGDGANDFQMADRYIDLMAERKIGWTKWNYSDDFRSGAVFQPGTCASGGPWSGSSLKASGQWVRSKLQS

[2] = molecular target: T2, 11A-a chimera (catalytic module of T. fusca Xyn11A attached directly to dockerin B from Acetivibrio …); test: affinity-based ELISA; complex formation also by non-denaturing PAGE
T2 construct: Recombinant chimera expressed in E. coli, purified on a Ni column (His-tag)

[3] = molecular target: T3, 11A-XBM-a chimera (catalytic module of T. fusca Xyn11A together with its adjacent XBM attached to dockerin B …); test: as above
T3 construct: Recombinant chimera expressed in E. coli, purified on a Ni column (His-tag); also called variant Xyn11A

Measured: binding result

B1: Scaf-AF chimeric scaffoldin (cohesin 3 from A. cellulolyticus scaffoldin C, CBM3a from C. thermocellum, cohesin 1 from R. flavefaciens scaffoldin B) (other)
chain: MDLQVDIGSTSGKAGSVVSVPITFTNVPKSGIYALSFRTNFDPQKVTVASIDAGSLIENASDFTTYYNNENGFASMTFEAPVDRARIIDSDGVFATINFKVSDSAKVGELYNITTNSAYTSFYYSGTDEIKNVVYNDGKIEVIASVPTNTPTNTPANTPVSGNLKVEFYNSNPSDTTNSINPQFKVTNTGSSAIDLSKLTLRYYYTVDGQKDQTFWCDHAAIIGSNGSYNGITSNVKGTFVKMSSSTNNADTYLEISFTGGTLEPGAHVQIQGRFAKNDWSNYTQSNDYSFKSASQFVEWDQVTAYLNGVLVWGKEPGGSVVPSTQPVTTPPATTKPPATTIPPSEDPAGGLSAVQPNVSLGEVLDVSANRTAADGTVEWLIPTVTAAPGQTVTMPVVVKSSSLAVAGAQFKIQAATGVSYSSKTDGDAYGSGIVYNNSKYAFGQGAGRGIVAADDSVVLTLAYTVPADCAEGTYDVKWSDAFVSDTDGQNITSKVTLTDGAIIVHHHHHH
binds: all assays above
